B1: affinity purified Amb a I: protein affinity purified from pollen extract with monoclonal antibody 4B5/B7 (protein)
chain: AEDLQEILPVNETRRLTTSGAYNIIDGCWRGKADWAENRKALADCAQGFGKGTVGGKDGDIYTVTSELDDDVANPKEGTLRFGAAQNRPLWIIFERDMVIRLDKEMVVNSDKTIDGRGAKVEIINAGFTLNGVKNVIIHNINMHDVKVNPGGLIKSNDGPAAPRAGSDGDAISISGSSQIWIDHCSLSKSVDGLVDAKLGTTRLTVSNSLFTQHQFVLLFGAGDENIEDRGMLATVAFNTFTDNVDQRMPRCRHGFFQVVNNNYDKWGSYAIGGSASPTILSQGNRFCAPDERSKKNVLGRHGEAAAESMKWNWRTNKDVLENGAIFVASGVDPVLTPEQSAGMIPAEPGESALSLTSSAGVLSCQPGAPC
B2: Amb a IC: E. coli expressed recombinant Amb a IC, used as crude bacterial lysate (protein)
chain: LYFTLALVALLQPVRSAEGVGEILPSVNETRSLQACEALNIIDKCWRGKADWENNRQALADCAQGFAKGTYGGKWGDVYTVTSNLDDDVANPKEGTLRFAAAQNRPLWIIFKNDMVINLNQELVVNSDKTIDGRGVKVEIINGGLTLMNVKNIIIHNINIHDVKVLPGGMIKSNDGPPILRQASDGDTINVAGSSQIWIDHCSLSKSFDGLVDVTLGSTHVTISNCKFTQQSKAILLGADDTHVQDKGMLATVAFNMFTDNVDQRMPRCRFGFFQVVNNNYDRWGTYAIGGSSAPTILCQGNRFLAPDDQIKKNVLARTGTGAAESMAWNWRSDKDLLENGAIFVTSGSDPVLTPVQSAGMIPAEPGEAAIKLTSSAGVFSCRPGAPC
B3: Amb a IB: E. coli expressed recombinant Amb a IB, used as crude bacterial lysate (protein)
chain: LYFTLALVTLLQPVRSAEDVEEFLPSANETRRSLKACEAHNIIDKCWRCKADWANNRQALADCAQGFAKGTYGGKHGDVYTVTSDKDDDVANPKEGTLRFAAAQNRPLWIIFKRNMVIHLNQELVVNSDKTIDGRGVKVNIVNAGLTLMNVKNIIIHNINIHDIKVCPGGMIKSNDGPPILRQQSDGDAINVAGSSQIWIDHCSLSKASDGLLDITLGSSHVTVSNCKFTQHQFVLLLGADDTHYQDKGMLATVAFNMFTDHVDQRMPRCRFGFFQVVNNNYDRWGTYAIGGSSAPTILSQGNRFFAPDDIIKKNVLARTGTGNAESMSWNWRTDRDLLENGAIFLPSGSDPVLTPEQKAGMIPAEPGEAVLRLTSSAGVLSCHQGAPC
B4: Amb a IA: full-length recombinant Amb a IA, amino acid 10-398, E. coli expressed, used as crude bacterial lysate (protein)
chain: LYFTLALVTLLQPVRSAEDLQEILPVNETRRLTTSGAYNIIDGCWRGKADWAENRKALADCAQGFGKGTVGGKDGDIYTVTSELDDDVANPKEGTLRFGAAQNRPLWIIFERDMVIRLDKEMVVNSDKTIDGRGAKVEIINAGFTLNGVKNVIIHNINMHDVKVNPGGLIKSNDGPAAPRAGSDGDAISISGSSQIWIDHCSLSKSVDGLVDAKLGTTRLTVSNSLFTQHQFVLLFGAGDENIEDRGMLATVAFNTFTDNVDQRMPRCRHGFFQVVNNNYDKWGSYAIGGSASPTILSQGNRFCAPDERSKKNVLGRHGEAAAESMKWNWRTNKDVLENGAIFVASGVDPVLTPEQSAGMIPAEPGESALSLTSSAGVLSCQPGAPC

Key:
[1] = tested on: T cells from patients allergic to ragweed; experiment: T cell proliferation of ragweed allergic patient T cells to ragweed proteins and recombinant lysates (tritiated thymidine); assay type: cell-based, human; settings: for T cell recognition and proliferation (in words): T cells previously stimulated with mixed ragweed pollen extract, summary of Table 4
Source text: T cells from patients allergic to ragweed, previously stimulated with a mixed ragweed pollen extract, can recognize and proliferate in response to pollen extract, ragweed skin test reagent (RWST), affinity purified Amb a I protein and crude bacterial lysates containing recombinant Amb a I gene products IA, IB and IC (Table 4). […] The use of crude bacterial lysates as antigens precludes a firm conclusion form the negative responses, since the relative levels of recombinant proteins in lysate have not been determined.
Peripheral blood mononuclear cells (PBMC) were purified from 60 ml of heparinized blood from ragweed-allergic patients. PBMC were subsequently treated as described below, although in individual cases, the length of time of cultivation with IL-2 and IL-4 and the specific ragweed proteins and peptides used for stimulation varied. As an example, ten ml of patient 222 PBMC at 10^6/ml were cultured at 37° C. for 7 days in the presence of 20 micrograms aqueous ragweed pollen extract/ml RPMI-1640 supplemented with 5% pooled human AB serum. Viable cells were purified by Ficoll-Hypaque centrifugation and cultured for three weeks at 5 units recombinant human IL-2/ml and 5 units recombinant human IL-4/ml. The resting T cells were then restimulated (secondary) with 20 micrograms aqueous ragweed pollen extract/ml at a density of 2×10^5 cells/ml in the presence of X-irradiated (3500 RADS) autologous PBMC (5×10^5/ml) for three days, purified by Ficoll-Hypaque centrifugation and grown in 5 units IL-2/ml and 5 units IL-4/ml for two weeks. For assay, 2×10^4 resting secondary T cells were restimulated (tertiary) in the presence of 5×10^4 X-irradiated (3500 RADS) autologous PBMC or 2×10^4 autologous Epstein-Barr virus-transformed B cells (20,000 RADS) with various concentrations of allergen or their fragments in a volume of 200 microliters in 96-well round bottom assay plates for 3 days. Each well then received 1 microCurie tritiated (methyl) thymidine for 16 hours. The counts incorporated were collected onto glass fiber filters and processed for liquid scintillation counting. […] Antigens used: IPC aqueous pollen extract (pollen), Hollister-Stier ragweed skin test extract (RWST), ALK cat epithelium skin test extract (CST), affinity 4B5/B7 antibody purified (dialyzed) Amb a I (B7), and chromatographically purified Amb a I and (Amb a I). Medium only control is shown as a line with no symbol. Alternatively, PBMC were sometimes carried only into a secondary assay (as outlined above for a tertiary assay) with 20 micrograms aqueous pollen extract 7 days, followed by culture in 5 units IL-2/ml and 5 units IL-4/ml for 2-3 weeks. […] Secondary and tertiary assays of a panel of ragweed allergic patients were performed using synthetic peptides derived from the sequences of various ragweed pollen proteins. […] Another four peptides (RAE15.6, RAE3.D, RAE28.1, RAE26.15) which are also derived from the sequence of the same three cDNA's could stimulate 35 to 58% of the patients' T cells. One peptide (RAE4) which is derived from the cDNA of IPC Clone 5 could also stimulate 25% of the patients' T cells. […] By this method it is possible to identify novel therapeutic and diagnostics entities for use in the treatment and the diagnosis of ragweed allergy.

[2] = tested on: rabbit antisera directed against an Amb a II sequence (amino acid 326-338; RAE 50. K); experiment: Western blot of recombinant proteins with monospecific anti-peptide antisera against RAE 50. K; assay type: binding; settings: Western blots, data not shown
Source text: Proteins or peptides encoded by the cDNA of the present invention can be used, for example, as “purified” allergens. Such purified allergens are useful in the standardization of allergen extracts which are key reagents for the diagnosis and treatment of ragweed allergy. Furthermore, by using peptides based on the sequences listed in FIGS. 2 through 16, anti-peptide antisera or monoclonal antibodies can be made using standard methods. Such reagents can be specifically directed against individual isoforms of Amb a I or Amb a II (i.e., directed against divergent regions/epitopes of the molecule) or can be specific for all forms Amb a I or Amb a II (i.e, directed against common sequences/epitopes). These sera or monoclonal antibodies, directed against Amb a I or Amb a II, can be used to standardize allergen extracts. One such monospecific anti-peptide antisera has already been successfully produced.

[3] = patient 151 2° (secondary assay)
[4] = patient 222 2° (secondary assay)
[5] = patient 274 2° (secondary assay)
[6] = patient 296 2° (secondary assay)
[7] = patient 314 2° (secondary assay)
[8] = patient 316 2° (secondary assay)
[9] = patient 319 2° (secondary assay)
[10] = patient 320 2° (secondary assay)
[11] = patient 321 2° (secondary assay)
[12] = patient 295 2° (secondary assay)

Molecule	T cell recognition and proliferation (in words) [1]	T cell response in secondary assay (in words) ([1]; one ragweed allergic patient, FIG. 21)	Stimulatory response of human T cells (proliferation compared to medium control) [1, 3]	Stimulatory response of human T cells (proliferation compared to medium control) [1, 4]	Stimulatory response of human T cells (proliferation compared to medium control) [1, 5]	Stimulatory response of human T cells (proliferation compared to medium control) [1, 6]	Stimulatory response of human T cells (proliferation compared to medium control) [1, 7]	Stimulatory response of human T cells (proliferation compared to medium control) [1, 8]	Stimulatory response of human T cells (proliferation compared to medium control) [1, 9]	Stimulatory response of human T cells (proliferation compared to medium control) [1, 10]	Stimulatory response of human T cells (proliferation compared to medium control) [1, 11]	Stimulatory response of human T cells (proliferation compared to medium control) [1, 12]	Binding by rabbit anti-RAE 50. K antisera (in words) [2]
B1	proliferate	responded	(+) (2 fold)	+++ (>10 fold)	++ (4-10 fold)	+++ (>10 fold)	+++ (>10 fold)	+++ (>10 fold)	++ (4-10 fold)	+++ (>10 fold)	+ (2-4 fold)		
B2	proliferate		+ (2-4 fold)	++ (4-10 fold)	++ (4-10 fold)	+++ (>10 fold)	+++ (>10 fold)	+++ (>10 fold)	++ (4-10 fold)		+ (2-4 fold)	+ (2-4 fold)	not
B3	proliferate		+ (2-4 fold)		+ (2-4 fold)	+++ (>10 fold)	+++ (>10 fold)	++ (4-10 fold)	(+) (2 fold)	+ (2-4 fold)	++ (4-10 fold)	+ (2-4 fold)	not
B4	proliferate		(+) (2 fold)	++ (4-10 fold)									not

Reference: patent US6335019B1, “Methods for treating sensitivity to protein allergen using peptides which include a T cell epitope recognized by a T cell receptor specific for the protein allergen” (Immulogic Pharmaceutical Corp., priority 1989, dated 2002)
